Test results from patent publication US8652790B2, “Conformational entropy in molecular recognition” (The Trustees of the University of Pennsylvania, priority 2007, dated 2014).
Read-outs that look alike come from different tables or passages of the source.

Tests used:
[1] = molecular target: T1, calcium-saturated calmodulin (CaM) (Homo sapiens, UniProt P0DP23); conditions: cited from earlier work; for −TΔSbind: Binding entropy at 308 K (Table 3), values cited per Table 2 footnotes; for −TΔSbinding^total: ITC, 308 K, from Marlow & Wand or Frederick et al.
T1 construct: made in house

[2] = molecular target: T1, calcium-saturated calmodulin (CaM); test: Deuterium NMR relaxation of methyl-bearing side chains of target domains bound to CaM; conditions: residue L20 of the bound target domain
Description: Using deuterium NMR relaxation methods, fast motion of the methyl-bearing side-chains of the target domains in the six CaM complexes were examined. Muhandiram, D. R. et al., Measurement of H-2 T-1 and T-1p relaxation-times in uniformly C-13-Labeled and fractionally H-2-labeled proteins in solution. J. Am. Chem. Soc. 117, 11536-11544 (1995).
All bound target domain methyl resonances are well resolved in ^13C-single quantum heteronuclear correlation (^13C-HSQC) NMR spectra and deuterium relaxation parameters could be measured with high precision. The 76 methyl order parameters from 52 residues of the target domains in the six complexes are heterogeneously distributed with O^2axis values ranging from 0.13 to 0.95 (FIG. 5). […]
O^2axis parameters were determined from T1 and T1p deuterium relaxation (Muhandiram, D. R. et al. Measurement of H-2 T-1 and T-1p relaxation-times in uniformly C-13-Labeled and fractionally H-2-labeled proteins in solution. J. Am. Chem. Soc. 117, 11536-11544 (1995)) measured at two magnetic fields. Rotational correlation times and O^2NH were determined from ^15N relaxation (Farrow, N. A. et al. Backbone dynamics of a free and a phosphopeptide-complexed Src homology-2 domain studied by ^15N NMR relaxation. Biochemistry 33, 5984-6003 (1994)) obtained at two magnetic fields. O^2CαCO parameters were determined by transverse cross-correlated relaxation. […]

[3] = molecular target: T1, calcium-saturated calmodulin (CaM); test: Isothermal titration calorimetry of target domain peptides binding to calcium-saturated calmodulin; conditions: for −TΔSbind: Binding entropy at 308 K (Table 3); for −TΔSbinding^total: ITC, 308 K, pH 6.5, 100 mM KCl, 6 mM CaCl2, standard errors
Description: NMR methods are herein used to determine the dynamic response of human CaM (GenBank AAD45181) to the binding of six peptides representing the calmodulin-binding domains of the smooth muscle myosin light chain kinase (smMLCK; AAA69964) (Lukas, T. J. et al. Calmodulin binding domains: characterization of a phosphorylation and calmodulin binding site from myosin light chain kinase. Biochemistry 25, 1458-1464 (1986)), the neuronal and endothelial nitric oxide synthases (nNOS and eNOS; AAB60654 and AAH63294, respectively) (Zhang, M. & Vogel, H. J. Characterization of the calmodulin-binding domain of rat cerebellar nitric oxide synthase. J. Biol. Chem. 269, 981-985 (1994)), the calmodulin kinase kinase (CaMKKα; EDM05132) (Tokumitsu, H. et al. Calcium/calmodulin-dependent protein kinase kinase: identification of regulatory domains. Biochemistry 36, 12823-12827 (1997)), the calmodulin kinase I (CaMKI; EAW63990) Goldberg, J., Nairn, A. C. & Kuriyan, J. Structural basis for the autoinhibition of calcium/calmodulin-dependent protein kinase I. Cell 84, 875-887 (1996)) and the phosphodiesterase (PDE; AAD40738 (SEQ ID NO: 8)) Goldberg, J., Nairn, A. C. & Kuriyan, J. Structural basis for the autoinhibition of calcium/calmodulin-dependent protein kinase I. Cell 84, 875-887 (1996)).
Four of the peptides have been found previously by isothermal titration calorimetry to have roughly the same affinity for calmodulin but with widely different thermodynamic parameters defining the free energy of association. Wintrode, P. L. & Privalov, P. L. Energetics of target peptide recognition by calmodulin: a calorimetric study. […] J. Biol. Chem. 276, 14083-14091 (2001). The present study repeats isothermal titration calorimetry measurements at a temperature (35° C.) that is more optimal for solution NMR spectroscopy, and characterizes the thermodynamics of binding of two additional domains (FIG. 1). Shown in FIG. 1 are the Gibbs free energy (ΔG), enthalpy (ΔH) and entropy (−TΔS) for the formation of the six calcium-saturated CaM-peptide complexes at 35° C., as determined by isothermal titration calorimetry.
Calmodulin and synthetic peptides and complexes were prepared as described previously (Kranz, J. K. et al. A direct test of the reductionist approach to structural studies of calmodulin activity: relevance of peptide models of target proteins. J. Biol. Chem. 277, 16351-16354 (2002)) in 20 mM imidazole (pH 6.5), 100 mM KCl, 6 mM CaCl2 and 0.02% (w/v) NaN3. NMR samples were slightly (˜10%) over-titrated with peptide to ensure full complex formation. […] Data were obtained with a VP-isothermal titration calorimeter (Microcal) and analysed with the Origin (v.5) software.

| O^2axis [2] | Substance | −TΔSbind [1] | −TΔSbinding^total [1] | −TΔSbind [3] | −TΔSbinding^total [3] |
| --- | --- | --- | --- | --- | --- |
|  | (COOH-FPNGFSRKRLMSKVLIVTTWSPLL [CaMKKα(p)] | +90.0 ± 1.0 kJ/mol | +90.0 ± 1.0 kJ/mol |  |  |
|  | AKSKWKQAFNATAVVRHMRKLQ (listed as Homo sapiens) [CaMKI(p)] | +69.6 ± 0.9 kJ/mol | +69.6 ± 0.9 kJ/mol |  |  |
| 0.165 | QTEKMWQRLKGILRSLVKQ [PDE(p)] |  |  | +33.9 ± 0.7 kJ/mol | +33.9 ± 0.7 kJ/mol |
|  | RKKTFKEVANAVKISASLMG [eNOS(p)] |  |  | +25.7 ± 0.8 kJ/mol | +25.7 ± 0.8 kJ/mol |
